Laboratory results taken from article PMC4612324.

Biological target: Aβ 1-40 peptide (UniProt P05067)
Assay: ELISA; Aβ1-40 peptide coated on Maxisorp plates (0.1 µg/ml, bicarbonate buffer pH 9.6); antibodies serially diluted in PBS/1 % BSA, 1 h at room temperature; detected with biotinylated anti-mouse IgG and streptavidin poly-HRP; relative affinity

- EC50: 0.34 pM
Substance: chGantenerumab (mouse/human chimeric version of Gantenerumab with mouse IgG2a constant region) (antibody)
